The target of assay [1] is β-catenin (UniProt P35222). As to conditions: cited from earlier work.
The target of assay [2] is β-catenin (UniProt P35222). As to conditions: cited from earlier work. This is another data set of the same source.
Assay [3] addresses HMP-2_(54arm) (C. elegans) (UniProt O44326). The experiment in a line: ITC. (Isothermal titration calorimetry measures the heat released or taken up as one component is titrated into another.)
Assay [4] addresses HMP-2_(54end) (C. elegans) (UniProt O44326). The experiment in a line: ITC.

The term pKd denotes −log10 of the Kd, conventionally taken in molar units.

pKd: −log10 of the molar value. Read-outs that look alike come from different tables or passages of the source.

Chain of UniProt P35222 (P35222 2-781): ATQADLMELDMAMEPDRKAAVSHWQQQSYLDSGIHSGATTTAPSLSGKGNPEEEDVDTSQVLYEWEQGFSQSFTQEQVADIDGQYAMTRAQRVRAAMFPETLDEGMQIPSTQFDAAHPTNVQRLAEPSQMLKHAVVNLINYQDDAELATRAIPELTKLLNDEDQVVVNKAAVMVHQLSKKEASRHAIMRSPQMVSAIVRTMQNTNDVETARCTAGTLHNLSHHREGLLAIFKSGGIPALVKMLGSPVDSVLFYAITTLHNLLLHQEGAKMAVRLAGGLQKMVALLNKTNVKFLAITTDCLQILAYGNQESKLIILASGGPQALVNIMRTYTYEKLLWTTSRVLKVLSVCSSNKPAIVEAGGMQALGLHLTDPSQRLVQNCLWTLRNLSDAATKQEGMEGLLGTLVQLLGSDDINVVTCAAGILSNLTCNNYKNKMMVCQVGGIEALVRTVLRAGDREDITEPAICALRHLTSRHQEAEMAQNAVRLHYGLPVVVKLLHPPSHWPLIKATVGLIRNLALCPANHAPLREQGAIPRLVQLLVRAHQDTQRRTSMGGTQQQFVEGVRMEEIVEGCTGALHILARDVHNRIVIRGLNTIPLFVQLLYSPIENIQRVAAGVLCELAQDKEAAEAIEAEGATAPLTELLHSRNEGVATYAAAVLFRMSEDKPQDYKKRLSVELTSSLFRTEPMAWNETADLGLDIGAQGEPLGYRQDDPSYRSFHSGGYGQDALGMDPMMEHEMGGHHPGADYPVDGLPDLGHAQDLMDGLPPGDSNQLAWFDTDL

For “E-cadherin cytoplasmic domain (from UniProt P12830)”, the pKd in the assay with β-catenin [1] was 7.34; in the assay with β-catenin [2], 10.28.

In assay [3], “HMR-1(T1215A)_(cyto80), non-phosphorylated (domain or fragment)” showed a pKd of 6.21.

HMR-1_(cyto80) (domain or fragment) had a negative logarithm of the Kd (pKd) in assay [3] of 6.42.

As for “pHMR-1(T1215A)_(cyto80) (domain or fragment)”, the pKd in assay [3] is 7.59.

As to pHMR-1_(cyto80) (domain or fragment), the figures for the pKd in assay [3] and in assay [4] were 8.51 and 7.64, respectively.

The record behind these values is article PMC4390766.
